Data taken from patent US20210403538A1.

Legend:
[1] = target: Jurkat-EBOV GPCL (Zaire ebolavirus (EBOV), Makona)
[2] = target: Jurkat-EBOV GP (Zaire ebolavirus (EBOV), Makona)

Chain of rEBOV-520 LALA (antibody) (VH): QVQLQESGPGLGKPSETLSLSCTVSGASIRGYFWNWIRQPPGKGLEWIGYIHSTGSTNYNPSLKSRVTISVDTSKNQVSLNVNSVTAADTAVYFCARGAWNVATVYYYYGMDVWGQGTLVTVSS
Chain of rEBOV-520 LALA (antibody) (VL): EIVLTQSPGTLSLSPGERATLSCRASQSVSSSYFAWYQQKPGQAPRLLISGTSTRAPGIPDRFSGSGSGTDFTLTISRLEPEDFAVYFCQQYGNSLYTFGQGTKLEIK

Row | Substance | fold decrease in binding [1] [fold] | fold increase in binding [2] [fold]
1 | MR72 (antibody) | 2.8 | 
2 | rEBOV-520 LALA (antibody) |  | < 4.6
